From article PMC4095729 (Alzheimer's Research & Therapy, 2014)

Target: T1, Aβ1-7 peptide (Homo sapiens (deposited entity))
T1 construct: amyloid beta peptide (Aβ), cut from amyloid precursor protein (APP), residues 1-7; Additional file 1 names the peptide Aβ1-6; also called amyloid-β1-7; Aβ residues 1–7
T1 chain: DAEFRHD
Test: crystal structure; 3D6 Fab co-crystallised with Aβ1-7 or Aβ1-40 peptide, crystals grown at 22 °C; the Aβ1-40 crystals in 200 mM Zn2+; data at 100 K
Conditions: both partners purified

- binding result: binds
B1: Recombinant 3D6 Fab (Fab, V domains shown)
VH: EVKLVESGGGLVKPGASLKLSCAASGFTFSNYGMSWVRQNSDKRLEWVASIRSGGGRTYYSDNVKGRFTISRENAKNTLYLQMSSLKSEDTALYYCVRYDHYSGSSDYWGQGTTVTVSS
VL: not shown
notes: also called Fab 3D6
